According to the RNAGym collection of RNA variant scans (doi:10.1093/molbev/msab373):

B1: Azoarcus group I ribozyme (parent)
chain: GUGCCUUGCGCCGGGAAACCACGCAAGGGAUGGUGUCAAAUUCGGCGAAACCUAAGCGCCCGCCCGGGCGUAUGGCAACGCCGAGCCAAGCUUCGGCGCCUGCGCCGAUGAAGGUGUAGAGACUAGACGGCACCCACCUAAGGCAAACGCUAUGGUGAAGGCAUAGUCCAGGGAGUGGCGAAAGUCACACAAACCGG

Variants of: B1
Assay: reverse-splicing fitness (ratio to wild type); higher = more active; in vitro selection; Mg2+ level not given
In short: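 An in vitro group I ribozyme library with randomized positions was T7-transcribed and gel-purified. In triplicate, 10 pmol RNA in EPPS pH 7.5 was reacted with 50 pmoles of a 30-nt RNA substrate for 1 h at 37 °C across several added MgCl2 levels (1–48 mM), then stopped with EDTA. Products were reverse transcribed from a substrate-complementary primer, PCR-amplified and sequenced (HiSeq 4000). Fitness is a variant's read proportion after selection over that before, normalised to wild type.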

| Variant | reverse-splicing fitness |
| --- | --- |
| C82A A111C A120G A145U C150G U176A | 0.0064 |
| C82A A111C A120G A145U C150G U176C | 0.0147 |
| C82A A111C A120G A145U C150G U176G | 0.0034 |
| C82A A111C A120G A145U C150U | 0.0124 |
| C82A A111C A120G A145U C150U C169A | 0.00903 |
| C82A A111C A120G A145U C150U C169A U176A | 0.0123 |
| C82A A111C A120G A145U C150U C169A U176C | 0.00986 |
| C82A A111C A120G A145U C150U C169A U176G | 0.00604 |
| C82A A111C A120G A145U C150U C169G | 0.00909 |
| C82A A111C A120G A145U C150U C169G U176A | 0.012 |
| C82A A111C A120G A145U C150U C169G U176C | 0.014 |
| C82A A111C A120G A145U C150U C169G U176G | 0.00522 |
| C82A A111C A120G A145U C150U C169U | 0.00924 |
| C82A A111C A120G A145U C150U C169U U176A | 0.0153 |
| C82A A111C A120G A145U C150U C169U U176C | 0.012 |
| C82A A111C A120G A145U C150U C169U U176G | 0.00648 |
| C82A A111C A120G A145U C150U U176A | 0.0121 |
| C82A A111C A120G A145U C150U U176C | 0.0188 |
| C82A A111C A120G A145U C150U U176G | 0.00527 |
| C82A A111C A120G A145U C169A | 0.00893 |
| C82A A111C A120G A145U C169A U176A | 0.00852 |

| Variant | reverse-splicing fitness |
| --- | --- |
| C82A A111C A120G A145U C169A U176C | 0.0104 |
| C82A A111C A120G A145U C169A U176G | 0.00466 |
| C82A A111C A120G A145U C169G | 0.00868 |
| C82A A111C A120G A145U C169G U176A | 0.0102 |
| C82A A111C A120G A145U C169G U176C | 0.012 |
| C82A A111C A120G A145U C169G U176G | 0.00481 |
| C82A A111C A120G A145U C169U | 0.00891 |
| C82A A111C A120G A145U C169U U176A | 0.0132 |
| C82A A111C A120G A145U C169U U176C | 0.0118 |
| C82A A111C A120G A145U C169U U176G | 0.00449 |
| C82A A111C A120G A145U U176A | 0.0134 |
| C82A A111C A120G A145U U176C | 0.0197 |
| C82A A111C A120G A145U U176G | 0.00466 |
| C82A A111C A120G C150A | 0.00933 |
| C82A A111C A120G C150A C169A | 0.00919 |
| C82A A111C A120G C150A C169A U176A | 0.0182 |
| C82A A111C A120G C150A C169A U176C | 0.0168 |
| C82A A111C A120G C150A C169A U176G | 0.00729 |
| C82A A111C A120G C150A C169G | 0.00885 |
| C82A A111C A120G C150A C169G U176A | 0.0187 |
| C82A A111C A120G C150A C169G U176C | 0.0234 |

| Variant | reverse-splicing fitness |
| --- | --- |
| C82A A111C A120G C150A C169G U176G | 0.00735 |
| C82A A111C A120G C150A C169U | 0.00723 |
| C82A A111C A120G C150A C169U U176A | 0.018 |
| C82A A111C A120G C150A C169U U176C | 0.018 |
| C82A A111C A120G C150A C169U U176G | 0.00682 |
| C82A A111C A120G C150A U176A | 0.0133 |
| C82A A111C A120G C150A U176C | 0.0233 |
| C82A A111C A120G C150A U176G | 0.00789 |
| C82A A111C A120G C150G | 0.00723 |
| C82A A111C A120G C150G C169A | 0.0097 |
| C82A A111C A120G C150G C169A U176A | 0.0102 |
| C82A A111C A120G C150G C169A U176C | 0.00996 |
| C82A A111C A120G C150G C169A U176G | 0.00659 |
| C82A A111C A120G C150G C169G | 0.00748 |
| C82A A111C A120G C150G C169G U176A | 0.00664 |
| C82A A111C A120G C150G C169G U176C | 0.00493 |
| C82A A111C A120G C150G C169G U176G | 0.00538 |
| C82A A111C A120G C150G C169U | 0.00833 |
| C82A A111C A120G C150G C169U U176A | 0.00801 |
| C82A A111C A120G C150G C169U U176C | 0.012 |
| C82A A111C A120G C150G C169U U176G | 0.00579 |

| Variant | reverse-splicing fitness |
| --- | --- |
| C82A A111C A120G C150G U176A | 0.00868 |
| C82A A111C A120G C150G U176C | 0.0155 |
| C82A A111C A120G C150G U176G | 0.00292 |
| C82A A111C A120G C150U | 0.0107 |
| C82A A111C A120G C150U C169A | 0.00973 |
| C82A A111C A120G C150U C169A U176A | 0.013 |
| C82A A111C A120G C150U C169A U176C | 0.0139 |
| C82A A111C A120G C150U C169A U176G | 0.00621 |
| C82A A111C A120G C150U C169G | 0.00891 |
| C82A A111C A120G C150U C169G U176A | 0.0134 |
| C82A A111C A120G C150U C169G U176C | 0.0169 |
| C82A A111C A120G C150U C169G U176G | 0.00594 |
| C82A A111C A120G C150U C169U | 0.00806 |
| C82A A111C A120G C150U C169U U176A | 0.0157 |
| C82A A111C A120G C150U C169U U176C | 0.0155 |
| C82A A111C A120G C150U C169U U176G | 0.00631 |
| C82A A111C A120G C150U U176A | 0.0116 |
| C82A A111C A120G C150U U176C | 0.02 |
| C82A A111C A120G C150U U176G | 0.00673 |
| C82A A111C A120G C169A | 0.0095 |
| C82A A111C A120G C169A U176A | 0.0155 |
